In US11819540B2, “Methods for treating and preventing neutrophil-derived net toxicity and thrombosis” (CHILDREN'S MEDICAL CENTER CORPORATION, priority 2011, dated 2023):
“Also recorded” adds a separate entry of the source.

How the values were obtained:
Type in all cases: in vivo, mouse
[1] = test system: flow restriction-induced DVT in mice; test: IVC stenosis (flow restriction) model of deep vein thrombosis
Source text: Mice were anesthetized by isoflurane-oxygen mixture and placed in a supine position. After laparotomy, intestines were exteriorized and warm sterile saline was applied during the whole procedure to prevent drying. After gentle separation from aorta, IVC was ligated over a 30 G needle by a 7.0 polypropylene suture immediately below the renal veins (towards the tail) and then the needle was removed. The needle was placed outside the vessel so that piercing or any other injury to the IVC wall was completely avoided. This procedure allows for standardized flow restriction without endothelial injury. All visible side branches (usually 1 or 2) were also ligated. After surgery, peritoneum and skin were closed by monofilament absorbable suture and 6.0 silk, respectively. Mice were euthanized after 6 h or 48 h and thrombi developed in the IVC below the suture (towards the tail) were taken for analysis.
All mice were treated with DNaseI (Pulmozyme®) immediately after surgery and mice with 48 h IVC stenosis received 3 additional injections every 12 hours. The dose of every injection was 50 μg i.p. (50 μl of non-diluted Pulmozyme) and 10 μg i.v. (in 50 μl of sterile saline) in retro-orbital plexus. Control mice were injected with the same volume of DNase buffer (8.77 mg/ml sodium chloride and 0.15 mg/ml calcium chloride in sterile water for injections).
Flow restriction model. The murine model of DVT was performed as described. […] A suture was placed on the IVC just below the renal veins over a spacer (diameter of 0.26 mm) and then the spacer was removed. […] All visible IVC side branches were also sutured. Thereafter, peritoneum and skin were closed, mice were sacrificed after 1-48 h and thrombi formed in the IVC were harvested. Sham-operated mice were opened and IVC sutured similarly to the experimental mice, but the suture was removed immediately after ligation.
Histone infusion. A mixture of all histones isolated from calf thymus (Worthington, Lakewood, NJ, USA) was dissolved in sterile saline and infused intravenously in mice immediately before IVC stenosis application. The dose used (10 mg kg^−1) is known to produce a 25% decrease in platelet count 10 min after infusion. The infused solution of histone mix was essentially endotoxin-free (<0.025 EU mL^−1; measured using the endotoxin detection kit [Lonza, Walkersville, MD, USA] according to the manufacturer's instructions). Control mice received infusion of sterile saline. Mice were sacrificed 1 h after surgery and thrombus formation was examined.
DNase 1 infusion. DNase 1 (PULMOZYME®, Genentech, San Francisco, CA, USA) was diluted in sterile saline and injected immediately after surgery (50 μg intraperitoneally and 10 μg intravenously). In experiments with 48 h IVC stenosis, injections were repeated three more times after every 12 h. Control mice were injected with the PULMOZYME™ vehicle buffer (8.77 mg mL^−1 sodium chloride and 0.15 mg mL^−1 calcium chloride) diluted in sterile saline.

TRALI in BALB/c mice [2] = test: Two-event (LPS + anti-H-2Kd mAb) TRALI model
Procedure: In order to determine the effect of anti-NET compounds as a treatment for TRALI, a mouse model of the 2-hit TRALI model was utilized. BALB/c male mice (8-10 week-old) were primed with an intraperitoneal injection of lipopolysaccharide (LPS) (0.1 or 0.5 mg/kg) 24 hours prior to challenge with anti-H2K^dmAb (clone 34-1-2s1, 1 mg/kg) or isotype control injected retro-orbitally. Before each injection mice were shortly anesthetized by inhalation of isoflurane. To measure the effect of DNaseI treatment on mice experiencing TRALI, mice received intranasal DNaseI (50 μg/mouse, 1 μg/ul) or 50 μl of the buffer-vehicle 10 minutes prior to the antibody injection.
The model was adapted from Looney et al. (2009).^20 Male BALB/c mice (8-10 week old) were primed with an i.p. injection of LPS (0.1 or 0.5 mg/kg, as indicated in the text) 24 hours prior to challenge with anti-H-2K^d mAb (clone 34-1-2s, 1 mg/kg) or isotype control injected retro-orbitally. In experiments involving DNase 1 treatment, mice that were injected with both LPS and the anti-H-2K^d mAb received i.n. DNase 1 (PULMOZYME®, Genentech, 50 μg/mouse, 1 μg/ul) 10 minutes before or 90 minutes after antibody injection. Control TRALI mice were injected with 50 μl of the DNase 1 vehicle-buffer in DNase 1 experiments. Blood collection, lung harvesting and arterial oxygen saturation measurements were all performed 2 hours after antibody injection. No event of TRALI-related death was recorded under these conditions in any of the treated mice.
Rectal temperatures were measured as an indicator of shock-like condition 2 hours post anti-H-2K^d infusion using a rectal temperature probe (MOUSEOX PLUS® system, STARR Life Sciences) connected to a POWERLAB™ data acquisition system (ADInstruments, USA).
Mouse peripheral blood counts were measured from EDTA (ethylenediaminetetraacetic acid)-anti-coagulated blood with a HEMAVET™ 950 veterinary hematology analyzer (Drew Scientific). This blood counter uses two different currents to analyze the cells. A low voltage current determines the volume and the number of cells (Coulter Impedance principle) and a high voltage current that passes through the cells generates information on their internal structure such as nucleus, fluid, granules and vacuoles.
Mice were sacrificed and intubated with a 24-gauge cannula after their tracheas were surgically isolated. The lungs were flushed three times with 0.8 ml of sterile PBS. BAL fluids were centrifuged for 5 minutes at 800 g. Protein concentration was quantified in the supernatant using the bicinchoninic acid method.
Blood arterial oxygen saturation was recorded 2 hours after anti-H-2K^d antibody injection, using a small rodent oxymeter sensor (MOUSE^OX™, STARR Life Sciences) mounted on the collar of each tested mouse. The 2 hour endpoint was used as per the model published by Looney and colleagues in 2009.^20-22
Mouse lungs were fixed by intratracheal infusion of 1.5% formaldehyde/1.5% glutaraldehyde in sodium cacodylate buffer (pH 7.35), excised and bathed in the same solution for 2 hours at 4° C. The fixed lungs were sliced into 0.5 mm sections; the sections were washed extensively in distilled water, frozen on a liquid-helium cooled copper block, freeze-dried at −80° C., and coated with 2 nm of platinum at a 45° angle with rotation and 10 nm of carbon without rotation. Tissue was removed from the metal casting using bleach (Austin's A-1-5.25% sodium hypochlorite), washed and picked up on formvar-coated 200 mesh copper grids. Grids were photographed in a JEOL-1200 EX electron microscope at 100 kV.

TRALI in BALB/c mice [3] = test: Two-event (LPS + anti-H-2Kd mAb) TRALI model; details: i.v. administration
[4] = 6 h and 48 h IVC stenosis, vs vehicle
[5] = intranasal DNaseI 50 μg/mouse 10 min prior to antibody

B1: rhDNase-1: recombinant human DNase-1 (Dornase alpha, Pulmozyme, Genentech) (protein, UniProt P24855 23-282, looked up)
Deoxyribonuclease-1: LKIAAFNIQTFGETKMSNATLVSYIVQILSRYDIALVQEVRDSHLTAVGKLLDNLNQDAPDTYHYVVSEPLGRNSYKERYLFVYRPDQVSAVDSYYYDDGCEPCGNDTFNREPAIVRFFSRFTEVREFAIVPLHAAPGDAVAEIDALYDVYLDVQEKWGLEDVMLMGDFNAGCSYVRPSQWSSIRLWTSPTFQWLIPDSADTTATPTHCAYDRIVVAGMLLRGAVVPDSALPFNFQAAYGLSDQLAQAISDHYPVEVMLK
protection from DVT (thrombus incidence) ([1]; 6 h and 48 h IVC stenosis): protected mice from flow restriction-induced DVT
thrombus length [1, 4]: significantly reduced
thrombus weight [1, 4]: significantly reduced
protection from DVT (thrombus incidence) ([1]; 6 h and 48 h IVC stenosis, listed as DNaseI): greatly reduces the incidence of thrombosis
mice that developed a thrombus ([1]; 48 h IVC stenosis, 50 μg i.p. and 10 μg i.v. every 12 h, 2 of 12, vehicle 5 of 8): 17%
rectal temperature (shock-like condition) (TRALI in BALB/c mice [2]; 2 hours after mAb infusion, DNase 1 as prophylaxis or treatment): normal
arterial oxygen saturation (mean and minimum) (TRALI in BALB/c mice [2]; DNase 1 i.n. 90 minutes after onset of TRALI (Post)): improves arterial oxygen saturation; also recorded: succeeded in correcting the defect in blood oxygenation
arterial oxygen saturation (mean and minimum) (TRALI in BALB/c mice [2]; DNase 1 i.n. pretreatment 10 min before antibody (Pre)): succeeded in correcting the defect in blood oxygenation; also recorded: more stable arterial blood oxygen saturation and improved transient hypoxia
down spikes in blood arterial oxygen saturation (transient hypoxia) (TRALI in BALB/c mice [2]; DNase 1 i.n. pretreatment vs vehicle buffer): significantly attenuated
TRALI outcome (TRALI in BALB/c mice [2]; inhalation, before or after TRALI onset): had a positive effect
fibrous material (NETs) in alveoli, electron microscopy (TRALI in BALB/c mice [2]; intranasal DNase 1 50 μg/mouse 10 min prior to antibody injection): absent; also recorded: prevents their alveolar accumulation; also recorded: no fibrous material could be detected
TRALI-induced decrease of platelet counts (TRALI in BALB/c mice [2]; [5]): diminished
TRALI-induced increase of BAL protein levels (TRALI in BALB/c mice [2]; [5]): diminished
TRALI outcome (TRALI in BALB/c mice [3]): did not improve TRALI outcome
